Measured values from the nanobody polyreactivity screen of Harvey et al. (2022).

assay: yeast display, Sf9 membrane polyspecificity reagent, FACS + sequencing; frameworks hold sequencing errors
Procedure, shortened: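 Using colony PCR, genes from sorted yeast display clones were amplified, then sequenced on MiSeq at 2 × 250 and filtered by CDR length. The clones had been stained with 10% biotinylated, detergent-solubilized Sf9 membrane reagent for 1 hour at 4 °C and sorted by FACS into low and high (top ~1%) gates on anti-HA and streptavidin fluorescence. Polyreactivity labels come from the gate of origin.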

Sequence | polyreactivity (PSR sort gate)
QVQLVESGAGLVQAGGSLRLSCAGSGLTFRGNAMGCYRQAPGKERELVAAISWSDDTTDYADSVKGRFTISRDNAKNTVYLQMNSLKPEDTAVYYCAARRRIYRSMGFWGQGSQVTVSS | low polyreactivity
QVQLVESGAGLVQAGGSLRLSCAPSGIIFYWNTMAWYRQAPGKERELVAAISSRSGSTYYADSVKGRFTISRDNAKNTVYLQMISLKPEDTAVFYCAARYGYRYADKGTDYGYWGQGTQVTVSS | high polyreactivity
QVQLVESGAGLVQAGGSLRLSCAPSGRIFYYAMGWYRQAPGKERELVAAISSGGSTNYADSVKGRFTISRDNSKNSVYLQMNSLKPEDTAVYYCAADRYWRWPRRDYWGQGTQVTVSS | low polyreactivity
QVQLVESGAGLVQAGGSLRLSCAPSGSTFEDYAMGWYRQAPGKERELVAAISHIGGSTYYADSVKGRFTISRDNAKNTVYLQMNSLKPEDTAVYYCAKGGFSSKFDYWGQGTQVTVSS | low polyreactivity
QVQLVESGAGLVQAGGSLRLSCASSGTIFWGYAMGWYRQAPGKERELVAAITDSGGRTYYADSVKGRFTISRDNAKNTVYLQMNCLKPEDTAVYYCAADYYSQYYYYAVPDRDYWGQGTQVTVSS | low polyreactivity
QVQLVESGAGLVQAGGSLRLSSAASGLTFQTYAMGCYRQAPGKEREYVATISNGSSTYYADSVKGRFTISRDNAKNTVYFQMNILKPEDTAVYYCAKDYYYSRNQLYGHDYWGQGPQVTVSS | low polyreactivity
QVQLVESGAGLVQAGGSLRLTCAASGSNFYYYAMGWYRQAPGKERELVAAINGGDTYYADSVKGRFTISRDNAKNTVYLQMNSLKPEDTAVFYCAAEGVTVEWDYDYWGQGTQVTVSS | low polyreactivity
QVQLVESGAGLVQAGGSLRLTCAPSGSIFNIYSMGWYRQAPGKDRELVATITGIADSTYYADSVKGRFTISRDNANNTVYLQMNILKPEDTAFYYCAADIYVAEYDYWGQGTQVTVSS | low polyreactivity
QVQLVESGAGLVQAGGSLSLSCAASGRTIVTNAMGWYRQAPGKERELVAAINGRGDNTYYADSVKGRFTISRDNAKNTFYLQMNSLKPEDTAVYYCAVRRGYHSHTKYYYWGLGTQVTVSS | high polyreactivity
QVQLVESGAGLVQEVGSLRLSCAASGFTFGVNAMGSSRQAPGKERQFVASIRVRGCSTYYADSEKGRFTISRDNAKNTVYLQMNSLKPEDTAVYFCNAEVYVSSYATEMDYWGQGTQVTVSS | low polyreactivity
QVQLVESGARLVQAGGSLRLSCAASAYTLVGYAMGWYRQEPGKERELVADINFSGGRTYYADSVKGRFTISRDNAKNNVYLQMNSLKPEDTAVYYCNAAGALSWFYYGYDYWGQGTQVTLSS | low polyreactivity
QVQLVESGARLVQAGGSLRLSCDASGITFFAYAIGWYRQAQGKERELVAAISCNTGRTYYADSVKGRFTISRDNAKITVYLQMNSLKPEDTAVYYCAKRGVGVGYNYWGQGTQVTVSS | high polyreactivity
QVQLVESGEGLVQAGGSLRLICAASGRNFYSNAMVWYRQAPGKERELVAAMSYSGGSTYYADSVKGRFTISRDNAKNTVYLQMNSLKPEDTAVYYCAADTTYWPYWGTYVVYDYWGQGTQVTVSS | low polyreactivity
QVQLVESGEGLVQAGGSLRLSCAASRRIFEYYFMGWYSQAPGKERELVAAMNRRGTSTYYADSVKGRFTISRDNAKNTVYLQMNSLKPEDTAVYYCAAVDRDYARTTTYDYWGQGTEVTVSS | high polyreactivity
QVQLVESGGALGQAGGSLRLTSAASGITFPRYAIGWYRHAPGKEREMVATITRSGGGTYYADSVKGRFKISRDNAKNTVYLQMNSLKPEDTSVFYCAAGALQRGVYGYGFWGQGTQVTVSS | high polyreactivity
QVQLVESGGALLQAGGSLRLSCAASGRTFGYNAMGWYRQAPGKEREMVAAITYSGGRTSYADSVKGRFTISRDNAKNTVYLQMNSLKPEDTAVYYCAAQTRYYSGYNYWGQATQVTVSS | high polyreactivity
QVQLVESGGALVHAGGSLRLSCAASGSTFSGYDMVWYRQAPGKERELVAAISTYYADSVKGRFTISRDNAKTTVFLQMYCLKPEDRAVYYCAKPWGRYDYLGQGTQVTVSS | low polyreactivity
QVQLVESGGALVQAGGSLRLICAASGRIFQRYTKGWYRQAPGKERELVAAITYSGGRTYYADSVKGRFTISRDNAKNTVYLQMNSLKPEDTAVYYCYAAYFNWYTHVWNDYWGQGTQVTVSS | high polyreactivity
QVQLVESGGALVQAGGSLRLICAASGSIFGYNAMGWYRPSPGKEREFVASIRDRGGSTYYADSVKGRFTISRDNAKNTLYFQMKSLKQEDTAVYYGDAYWWGVSKRQYGYWGQGTQVTVSS | high polyreactivity
QVQLVESGGALVQAGGSLRLICAASGSILYAYAMGWYRQAPGKERELVATNSYRGDRTRYADSVKGRFTISRDNAKNTVYLQMNSLKPEDTAVYSCAAKRKTSVPPVVKWSGYWGQGTQVTVSS | high polyreactivity
QVQLVESGGALVQAGGSLRLSCAASGFTFIPNAMGWYRQAPGKERELVAAIYSSGGTTYYADSVKGRFTISRDTAKNTVYLQMNSLKTEDTAVYYCARRVYGYYIPYNYWGQATQVTVSS | high polyreactivity
QVQLVESGGALVQAGGSLRLSCAASGIIFGRNGMGWYRQAPGKERELVAAISRGGGSTYYADSVKGRFTISRDNAKNTVYLQMNSLKPEDTAVYYCARRPTGIYDYWGQVTQVTVSS | high polyreactivity

Sequence | polyreactivity (PSR sort gate)
QVQLVESGGALVQAGGSLRLSCAASGITFARNAMGWYRQAPGKERELVAVISTRGGRTYYADSVKGRFTISRDNAKNTVYLQMNSLKPEDTAVYYCAASPDPYWRRMDYWGQGTQVTVSS | high polyreactivity
QVQLVESGGALVQAGGSLRLSCAASGLTFTDYAMGWYRPAPGQERELVAGIWDGGSTYYADSVKGRFTISRDNAKNTVYLQMNSLKPEDTAVYYCAAEDWWTSFPEYYYWGQGTQVTVSS | high polyreactivity
QVQLVESGGALVQAGGSLRLSCAASGRIFGVNAMGWYRQAPGKERELVAAITSRGGSTYYADSVKGRFTISRDNAKNTVYLQMHSLTPEDTEVYYCRGWRYFTDKTYDYWGQGTQVTVSS | high polyreactivity
QVQLVESGGALVQAGGSLRLSCAASGRIFGYYAMGWYRQAPGKERELVAAITVSGTSTYYADSVKGRFTISRDNAKNTVYLQMNSLKPEDTAVYYCAARPRRRYYGYDSWGQGTQVTVSS | high polyreactivity
QVQLVESGGALVQAGGSLRLSCAASGRIFIVYAMRWYRQAPGKERELVASITSGASTNYADSVKGRFTISRDNAKNTVYLQMNSLKPEDTAVYDCNADGPGAYLSEFGYWGQGTQVTVSS | low polyreactivity
QVQLVESGGALVQAGGSLRLSCAASGRIFSRYVIRWYRQAPGKERELVAAISWNGGSTYYADSVKGRFRISRDNAKNTVYLQMNSLKPEDTAVYYCAARVRVTGTYYTKFDYWGQGTQVTVSS | high polyreactivity
QVQLVESGGALVQAGGSLRLSCAASGRIFSSYAMGWYRQEPGKERELVAAISRSGARTYYADSVKGRFTISRDNAKYSVYLQMNSLIAEDSAVSYCAAVTVSCYDYWGQGTQVTVSS | high polyreactivity
QVQLVESGGALVQAGGSLRLSCAASGRTFGHNAMGCSRQAPGKEREFVAAITYSGVRTFYADSVKGRFTISRDNAQNTVYLQMNSLKPEDTAVYYCATDWRRDYDYWGQGTQVTVSS | low polyreactivity
QVQLVESGGALVQAGGSLRLSCAASGRTFGVYAMGWYRQAPGKERELVAAISRRAGNTYYADSVKGRFTISRDNAKNTVYLQMNSLKTEDTAVYYCAADFSRQYGYWGQGTQVTVSS | high polyreactivity
QVQLVESGGALVQAGGSLRLSCAASGSIFDHNAMGWYRQAPGKERELVAAITWSGTSTYYADSVKGRFTISRDNAKNTVYLQMNSLIPEETAVYYCAAYLYGAVRAYPYRWGRYNYWGQGTQVTVSS | high polyreactivity
QVQLVESGGALVQAGGSLRLSCAASGSIFYNAMGWYRQAPGKERELVAAISWRGTRTYYADSVKGRFTISRDNAKNTVYLQMNSLKPEDTAVYYCNKDYKYGVAYTRYDYWGQGTQVTVSS | high polyreactivity
QVQLVESGGALVQAGGSLRLSCAASGSTFDDNAMGWYRQAPGKERELVASITYRGGSTYYADSVKGRFTISRDNAKNTVYLQMNSLKPEDTAVYYCAKGHYFKYDYWGQGTQVTVSS | low polyreactivity
QVQLVESGGALVQAGGSLRLSCAASGSTFNRNAMGWYRPAPGKERELVAAISSRGGSTFYADSVMGRFTISRDNATNTVYLQMNSLKPEDTAVYYCNALIVSSWVRYDYWRQGTQVTVSS | high polyreactivity
QVQLVESGGALVQAGGSLRLSCAASGSTFNRYAMGWYRQAPGKERELVAAISASGGSTYYADSVKGRFTISRDNAKNTVYLQMNSLKPEDTAVYYCATLHYVGQEHDYWGQGTQVTVSS | low polyreactivity
QVQLVESGGALVQAGGSLRLSCAASGSTFRRYAMGRYRQAPGKERELVAAISYGGGTTYYADSVKGRFTISRDNAKNTVYLQMNSLKPEDTAVYYCAARGPYGYVLLYYWGQGTQVTVSS | high polyreactivity
QVQLVESGGALVQAGGSLRLSCAASGSTIYQNAMGWYRQAPGKERELVAVISSGGSTYYADSVKGRFTISRDNAKNTVYLQMNSLKAEDTAVYYCAADRGTVSYLYSPRAVDYWGQGTQVTVSS | low polyreactivity
QVQLVESGGALVQAGGSLRLSCAASGSTYDSYSMGWYRKAPGKERELVAAITRRGTRTYYADSVKGRFTISRDNAKNTVYLQMNSLKREDTAVYYCAADRGYRLQSYGYWGQGTQVTVSS | high polyreactivity
QVQLVESGGALVQAGGSLRLSCAASGYTFSKNTMGWYRQAPGKEREFVAAINWSGGSTYYADSVKGRFTISRDNEKNTVYLQMNSLKPEDTAVYYCAARRGGRRGYDYWGQGTQVTVSS | high polyreactivity
QVQLVESGGALVQAGGSLRLSCAASRSIFSNAMGWYRQAPRKERELDAAITGRGGRTYYADSVKGRFTISRDNAKYTVYLQMNSLNPEDTAVYYCARDSPWSSRYRYRAFDYWGQGTQVTVSS | high polyreactivity
QVQLVESGGALVQAGGSLRLSCAPSGFTFMRYAMGWYRQAPGKERELDAAIRGTGTSTYYADSVKVRFTISRDNAKNTVYLQMNSLNPEDTAVYYCNKVAGRSPYTRYDYWAQGTQVTVSS | low polyreactivity
QVQLVESGGALVQAGRSLRLSCAASGSIFSSYAMGRYRQAPGKERELVAAISRSGGRTYYADSVKGRFTITRDNAKNTVYLQMNSLKTEDTAVYYCAARRVLGEYGYWGQGTQVTVSS | high polyreactivity
